Experimental data as given in IntAct's records for PubMed 26656091.

B1: Adapter molecule crk (Homo sapiens), P46108-1 (parent)
chain: MAGNFDSEERSSWYWGRLSRQEAVALLQGQRHGVFLVRDSSTSPGDYVLSVSENSRVSHYIINSSGPRPPVPPSPAQPPPGVSPSRLRIGDQEFDSLPALLEFYKIHYLDTTTLIEPVSRSRQGSGVILRQEEAEYVRALFDFNGNDEEDLPFKKGDILRIRDKPEEQWWNAEDSEGKRGMIPVPYVEKYRPASASVSALIGGNQEGSHPQPLGGPEPGPYAQPSVNTPLPNLQNGPIYARVIQKRVPNAYDKTALALEVGELVKVTKINVSGQWEGECNGKRGHFPFTHVRLLDQQNPDEDFS

Variants of: B1
Conditions: with ppia_human PPIA

| effect of a mutation on the interaction | Variant |
| --- | --- |
| disrupting interaction strength | P220A |

Variants of: B1
Conditions: with ppia_human PPIA
Remark: another data set of the same source

| effect of a mutation on the interaction | Variant |
| --- | --- |
| increasing interaction strength | P218F |
